# Several values for one entry are separate records, joined by “and”; a condition that tells them apart may be missing. Equal entries are not always repeated.
# T1: PIN D141N (Homo sapiens, UniProt Q5D1E8 134-297, D141N)
# T1 sequence: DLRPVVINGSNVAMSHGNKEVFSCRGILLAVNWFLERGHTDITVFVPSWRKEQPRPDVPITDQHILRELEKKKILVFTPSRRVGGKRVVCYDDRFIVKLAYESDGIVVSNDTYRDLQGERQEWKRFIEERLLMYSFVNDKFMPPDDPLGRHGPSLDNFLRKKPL
# T2: PIN-ZF D141N (Homo sapiens, UniProt Q5D1E8 134-327, D141N)
# T2 sequence: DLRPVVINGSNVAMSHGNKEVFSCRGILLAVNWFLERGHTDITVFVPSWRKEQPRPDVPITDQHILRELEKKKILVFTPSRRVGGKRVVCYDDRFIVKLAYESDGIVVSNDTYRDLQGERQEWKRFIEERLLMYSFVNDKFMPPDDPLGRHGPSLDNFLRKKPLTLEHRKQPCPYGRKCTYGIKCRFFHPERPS
# T3: MCPIP1 D141N (Regnase-1), full length (Homo sapiens, UniProt Q5D1E8 1-599, D141N)
# T3 sequence: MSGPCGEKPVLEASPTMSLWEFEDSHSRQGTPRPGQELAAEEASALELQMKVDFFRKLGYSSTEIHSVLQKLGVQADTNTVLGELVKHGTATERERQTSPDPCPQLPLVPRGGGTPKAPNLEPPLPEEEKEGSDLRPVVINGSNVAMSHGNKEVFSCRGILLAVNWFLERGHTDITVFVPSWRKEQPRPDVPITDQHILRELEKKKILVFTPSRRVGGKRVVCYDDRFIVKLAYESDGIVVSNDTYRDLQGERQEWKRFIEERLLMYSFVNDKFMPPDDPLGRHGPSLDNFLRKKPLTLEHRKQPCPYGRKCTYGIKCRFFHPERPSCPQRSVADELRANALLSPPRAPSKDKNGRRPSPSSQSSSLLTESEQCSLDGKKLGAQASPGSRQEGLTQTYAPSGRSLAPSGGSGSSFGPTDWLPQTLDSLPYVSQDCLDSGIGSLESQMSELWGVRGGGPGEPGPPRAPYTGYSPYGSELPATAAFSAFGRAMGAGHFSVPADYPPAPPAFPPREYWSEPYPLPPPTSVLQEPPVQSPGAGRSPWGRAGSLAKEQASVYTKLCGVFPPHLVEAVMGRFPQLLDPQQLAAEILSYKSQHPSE
# Tests used:
# PIN D141N [1] = target: T1, PIN D141N; experiment: fluorescence intensity titration; 2.5 mM Mg2+; 25 mM Tris-HCl pH 7.9, 150 mM NaCl, 5% glycerol, 2.5 mM MgCl2, 1 mM DTT, 0.5 mM EDTA, 0.05 mM ZnCl2, 25 C; oligo 2 nM (full length) or 20 nM (PIN, PIN-ZF); conditions: protein: recombinant, tags: N-terminal His6, chain copies: 2
# PIN-ZF D141N [2] = target: T2, PIN-ZF D141N; experiment: as above; conditions: protein: recombinant, tags: N-terminal His6, chain copies: 2
# [3] = target: T3, MCPIP1 D141N (Regnase-1), full length; experiment: as above; conditions: protein: recombinant, tags: none stated (purified by ion exchange), chain copies: 2
# PIN D141N [4] = target: T1, PIN D141N; experiment: fluorescence intensity titration; 2.5 mM Mg2+; 20 nM oligo; sequential 2:1 model; 25 mM Tris-HCl pH 7.9, 150 mM NaCl, 5% glycerol, 2.5 mM MgCl2, 1 mM DTT, 0.5 mM EDTA, 0.05 mM ZnCl2, 25 C; oligo 2 nM (full length) or 20 nM (PIN, PIN-ZF); conditions: protein: recombinant; tags: N-terminal His6; chain copies: 2; label: 5' 6-FAM; hairpin
# PIN-ZF D141N [5] = target: T2, PIN-ZF D141N; experiment: as above; conditions: protein: recombinant; tags: N-terminal His6; chain copies: 2; label: 5' 6-FAM; hairpin
# [6] = target: the molecule itself; experiment: SEC; analytical Superdex 200 Increase 10/300 GL calibrated with protein standards; 25 mM Tris pH 7.9, 300 mM NaCl, 10% glycerol, 1 mM DTT, 0.5 mM EDTA, also with 1.6 M urea; apparent molecular weight from the calibration curve, multiple Gaussian peak fit
# [7] = label: 5' 6-FAM on strand 1, blunt, strands mixed 1:1.2
binder,measurement,setting,value
UGGAAAGUAUCUUUCCU (structured_RNA) [consensus stem-loop],Kd,"PIN D141N [1]; label: 5' 6-FAM, hairpin",36 ± 17 nM
same,Kd,"PIN-ZF D141N [2]; label: 5' 6-FAM, hairpin",9.1 ± 3.2 nM
same,Kd,"[3]; label: 5' 6-FAM, hairpin",3.8 ± 2.8 nM
UGUUCUCUAUGGAGAACU (structured_RNA) [hIL-6 82-99],Kd,"PIN D141N [1]; label: 5' 6-FAM, hairpin",15.1 ± 4.5 nM
same,Kd,"PIN-ZF D141N [2]; label: 5' 6-FAM, hairpin",13.2 ± 6.8 nM
same,Kd,"[3]; label: 5' 6-FAM, hairpin",4.1 ± 3.6 nM
UGUUGUACACUACGAUGUACUGACA (structured_RNA) [mIL-6 82-106 YR],Kd,"PIN D141N [1]; label: 5' 6-FAM, hairpin",25.1 ± 7 nM
same,Kd,"PIN-ZF D141N [2]; label: 5' 6-FAM, hairpin",14.4 ± 9.6 nM
same,Kd,"[3]; label: 5' 6-FAM, hairpin",9.5 ± 5.2 nM
UGUUGUUCUCUACGAAGAACUGACA (structured_RNA) [mIL-6 82-106 5'FAM],Kd,PIN D141N [4],24.1 ± 7.3 nM
same,Kd,PIN-ZF D141N [5],6.6 ± 3.1 nM
mIL-6 82-93 dsDNA (dsDNA) DNA 1: TGTTGTTCTCTA DNA 2: TAGAGAACAACA,Kd,PIN D141N [1]; [7],56 ± 17 nM
same,Kd,PIN-ZF D141N [2]; [7],80 ± 30 nM
same,Kd,[3]; [7],118 ± 49 nM
UUUUUUUUUUUU (ssRNA) [poly-U 12 nt],Kd,PIN D141N [1]; label: 5' 6-FAM,39 ± 11 nM
same,Kd,PIN-ZF D141N [2]; label: 5' 6-FAM,43 ± 23 nM
same,Kd,[3]; label: 5' 6-FAM,14.8 ± 7.2 nM
UGUUGUU (ssRNA) [mIL-6 82-88 ssRNA],Kd,"PIN D141N [1]; label: 5' 6-FAM, unstructured",40 ± 12 nM
same,Kd,"PIN-ZF D141N [2]; label: 5' 6-FAM, unstructured",32 ± 20 nM
same,Kd,"[3]; label: 5' 6-FAM, unstructured",14.5 ± 8.1 nM
UGUUCUCUACGAAGAAC (structured_RNA) [mIL-6 85-101 short stem],Kd,"PIN D141N [1]; label: 5' 6-FAM, hairpin",20.7 ± 7.2 nM
same,Kd,"PIN-ZF D141N [2]; label: 5' 6-FAM, hairpin",20 ± 10 nM
same,Kd,"[3]; label: 5' 6-FAM, hairpin",9.2 ± 4 nM
TGTTGTTCTCTA (ssDNA) [mIL-6 82-93 ssDNA],Kd,PIN D141N [1]; label: 5' 6-FAM,21.7 ± 6.6 nM
same,Kd,PIN-ZF D141N [2]; label: 5' 6-FAM,36 ± 20 nM
same,Kd,[3]; label: 5' 6-FAM,18.3 ± 8.2 nM
UGUUGUUCUCUACGAAGAACUGACA (structured_RNA) [mIL-6 82-106 3'FAM],Kd,"PIN D141N [1]; label: 3' 6-FAM, hairpin",21.8 ± 6.3 nM
same,Kd,"PIN-ZF D141N [2]; label: 3' 6-FAM, hairpin",4.8 ± 1.8 nM
same,Kd,"[3]; label: 3' 6-FAM, hairpin",8.6 ± 2.6 nM
"MCPIP1WT (Monocyte Chemoattractant Protein-1-Induced Protein 1), full-length (enzyme, human, UniProt Q5D1E8 1-599, looked up, human MCPIP1 encoded by ZC3H12A (synthetic gene optimised for E. coli, GenScript), full length, 1-599 aa; printed molecular weight 65.7 kDa; no tag is stated for the full-length protein; In solution a mixture of tetramer, dimer and monomer; also called Regnase-1; Regnase1; source: E. coli BL21-CodonPlus-RIL, purified (TMAE ion exchange in denaturing conditions, dialysis, Superdex 200 gel …)) MSGPCGEKPVLEASPTMSLWEFEDSHSRQGTPRPGQELAAEEASALELQMKVDFFRKLGYSSTEIHSVLQKLGVQADTNTVLGELVKHGTATERERQTSPDPCPQLPLVPRGGGTPKAPNLEPPLPEEEKEGSDLRPVVIDGSNVAMSHGNKEVFSCRGILLAVNWFLERGHTDITVFVPSWRKEQPRPDVPITDQHILRELEKKKILVFTPSRRVGGKRVVCYDDRFIVKLAYESDGIVVSNDTYRDLQGERQEWKRFIEERLLMYSFVNDKFMPPDDPLGRHGPSLDNFLRKKPLTLEHRKQPCPYGRKCTYGIKCRFFHPERPSCPQRSVADELRANALLSPPRAPSKDKNGRRPSPSSQSSSLLTESEQCSLDGKKLGAQASPGSRQEGLTQTYAPSGRSLAPSGGSGSSFGPTDWLPQTLDSLPYVSQDCLDSGIGSLESQMSELWGVRGGGPGEPGPPRAPYTGYSPYGSELPATAAFSAFGRAMGAGHFSVPADYPPAPPAFPPREYWSEPYPLPPPTSVLQEPPVQSPGAGRSPWGRAGSLAKEQASVYTKLCGVFPPHLVEAVMGRFPQLLDPQQLAAEILSYKSQHPSE",stoichiometry N,[6],4 and 2
"MCPIP1_(D141N), full-length (enzyme, human, UniProt Q5D1E8 1-599, looked up, human MCPIP1 encoded by ZC3H12A, full length, 1-599 aa, catalytic site mutant D141N; no tag is stated for the full-length protein; also called MCPIP_(D141N); source: E. coli BL21-CodonPlus-RIL, purified (TMAE ion exchange in denaturing conditions, dialysis, Superdex 200 gel filtration)) MSGPCGEKPVLEASPTMSLWEFEDSHSRQGTPRPGQELAAEEASALELQMKVDFFRKLGYSSTEIHSVLQKLGVQADTNTVLGELVKHGTATERERQTSPDPCPQLPLVPRGGGTPKAPNLEPPLPEEEKEGSDLRPVVINGSNVAMSHGNKEVFSCRGILLAVNWFLERGHTDITVFVPSWRKEQPRPDVPITDQHILRELEKKKILVFTPSRRVGGKRVVCYDDRFIVKLAYESDGIVVSNDTYRDLQGERQEWKRFIEERLLMYSFVNDKFMPPDDPLGRHGPSLDNFLRKKPLTLEHRKQPCPYGRKCTYGIKCRFFHPERPSCPQRSVADELRANALLSPPRAPSKDKNGRRPSPSSQSSSLLTESEQCSLDGKKLGAQASPGSRQEGLTQTYAPSGRSLAPSGGSGSSFGPTDWLPQTLDSLPYVSQDCLDSGIGSLESQMSELWGVRGGGPGEPGPPRAPYTGYSPYGSELPATAAFSAFGRAMGAGHFSVPADYPPAPPAFPPREYWSEPYPLPPPTSVLQEPPVQSPGAGRSPWGRAGSLAKEQASVYTKLCGVFPPHLVEAVMGRFPQLLDPQQLAAEILSYKSQHPSE",stoichiometry N,[6],2 and 4
UGUUGUUCUCUA (ssRNA) [mIL-6 82-93 ssRNA],Kd,"PIN D141N [1]; label: 5' 6-FAM, unstructured",41 ± 12 nM
same,Kd,"PIN-ZF D141N [2]; label: 5' 6-FAM, unstructured",34 ± 18 nM
same,Kd,"[3]; label: 5' 6-FAM, unstructured",19 ± 11 nM
ACAGUCAAGACUACGAUCUUGUUGU (structured_RNA) [mIL-6 82-106 RS (reverse stem)],Kd,"PIN D141N [1]; label: 5' 6-FAM, hairpin",39.3 ± 8.6 nM
same,Kd,"PIN-ZF D141N [2]; label: 5' 6-FAM, hairpin",15.1 ± 7.3 nM
same,Kd,"[3]; label: 5' 6-FAM, hairpin",9.8 ± 2.3 nM

# From paper PMC5943514, “Substrate specificity of human MCPIP1 endoribonuclease” (Scientific Reports, 2018)
